B1: Pistol ribozyme (parent)
chain: GGGUCGUUGUUCCAUAAUCGCGUGGAUAUGGCACGCAAGUUUCUACCGGGCACCGUAAAUGUCCGACUGGAGCCGUUCGGGCGGCUAUAAACAGACCUCAGGCCCGAAGCGUGGCGGCACCUGCCGCCGGUGGUAAAAAAGAUCGGAAGAGCACACGUCU

Variants of: B1
Assay: aptazyme ON/OFF ratio, guanine; higher = stronger switching; co-transcriptional cleavage with and without guanine

First: U7A G9U U10C U11G C12U C13G
Second: U7A G9U U10C U11A
The “aptazyme ON/OFF ratio” value of the first is lower: 1.12 for the first, 1.31 for the second.

Compared with U7A G9U U10C U11C, U7A G9U U10C U11G is higher in “aptazyme ON/OFF ratio” value: 1.07 for the first, 1.32 for the second.

First: U7A G9U U10C U11C C12A
Second: U7A G9U U10C U11C C12U
The “aptazyme ON/OFF ratio” value of the first is higher: 1.09 for the first, 1.03 for the second.

First: U7A G9U U10C U11C C12G
Second: U7A G9C U10C U11C C12G C13A
The “aptazyme ON/OFF ratio” value of the first is lower: 1.05 for the first, 1.06 for the second.

Going from U7A G9C U10C U11C C12G C13G to U7A G9C U10C U11C C12G C13U, the “aptazyme ON/OFF ratio” value falls from 1.09 to 1.02.

First: U7A G9C U10G U11G C13A
Second: U7A G9C U10G U11G C13G
The “aptazyme ON/OFF ratio” value of the first is lower: 1.13 for the first, 1.17 for the second.

First: U7A G9C U10G U11G C13U
Second: U7A G9U U10A
The “aptazyme ON/OFF ratio” value of the first is lower: 1.1 for the first, 1.4 for the second.

First: U7A G9U U10C
Second: U7A G9C U10G
The “aptazyme ON/OFF ratio” value of the first is higher: 2.35 for the first, 1.32 for the second.

Compared with U7A G9C U10C, U7A G9C U10G C12U C13G is lower in “aptazyme ON/OFF ratio” value: 2.21 for the first, 1.11 for the second.

First: U7A G9C U10G C12U C13A
Second: U7A G9C U10G C12U C13U
The “aptazyme ON/OFF ratio” value of the first is lower: 1.06 for the first, 1.56 for the second.

Going from U7A G9U U10C U11C C12G C13A to U7A G9U U10C U11C C12G C13G, the “aptazyme ON/OFF ratio” value rises from 1.02 to 1.04.

Going from U7A G9U U10C U11C C12G C13U to U7A G9C U10C U11G C12A C13A, the “aptazyme ON/OFF ratio” value rises from 1.01 to 1.04.

Compared with U7A G9C U10C U11G C12A C13G, U7A G9C U10C U11G C12A C13U is lower in “aptazyme ON/OFF ratio” value: 1.05 for the first, 1.02 for the second.

Compared with U7A G9C U10A U11G C13U, U7A G9C U10A U11G C13G is lower in “aptazyme ON/OFF ratio” value: 1.09 for the first, 1.06 for the second.

Compared with U7A G9C U10A U11G C13A, U7A G9C U10C U11C C12U C13U is lower in “aptazyme ON/OFF ratio” value: 1.03 for the first, 0.994 for the second.

Compared with U7A G9C U10C U11C C12U C13G, U7A G9C U10C U11C C12U C13A is higher in “aptazyme ON/OFF ratio” value: 1.04 for the first, 1.05 for the second.

Compared with U7A G9C U10C U11A C12U C13U, U7A G9C U10C U11A C12U C13G is higher in “aptazyme ON/OFF ratio” value: 1.06 for the first, 1.08 for the second.

Going from U7A G9C U10C U11A C12U C13A to U7A G9U U10C C13A, the “aptazyme ON/OFF ratio” value rises from 1.04 to 1.09.

Going from U7A G9U U10C C13G to U7A G9U U10C C13U, the “aptazyme ON/OFF ratio” value rises from 1.02 to 1.18.

Going from U7A G9U U10A U11G C12A C13A to U7A G9U U10A U11G C12A C13G, the “aptazyme ON/OFF ratio” value rises from 1.08 to 1.19.

Compared with U7A G9U U10A U11G C12A C13U, U7A G9C U10A U11G C12G C13U is higher in “aptazyme ON/OFF ratio” value: 1.1 for the first, 1.18 for the second.

Going from U7A G9C U10A U11G C12G C13A to U7A G9C U10A U11G C12G C13G, the “aptazyme ON/OFF ratio” value rises from 1.06 to 1.12.

Going from U7A G9C U10A U11G to U7A G9U U10C U11A C12U C13U, the “aptazyme ON/OFF ratio” value rises from 1.09 to 1.22.

First: U7A G9U U10C U11A C12U C13G
Second: U7A G9U U10C U11A C12U C13A
The “aptazyme ON/OFF ratio” value of the first is lower: 1.2 for the first, 1.23 for the second.

Compared with U7A G9U U10A U11G, U7A G9U U10A U11A is higher in “aptazyme ON/OFF ratio” value: 1.31 for the first, 1.43 for the second.

Going from U7A G9U U10A U11C to U7A G9C U10G U11C C12U C13G, the “aptazyme ON/OFF ratio” value rises from 1.02 to 1.07.

Going from U7A G9C U10G U11C C12U C13A to U7A G9C U10G U11C C12U C13U, the “aptazyme ON/OFF ratio” value rises from 1.05 to 1.09.

Going from U7A G9C U11G C12A C13A to U7A G9C U11G C12A C13U, the “aptazyme ON/OFF ratio” value rises from 1.1 to 1.29.

Going from U7A G9C U11G C12A C13G to U7A G9C U10C C12G, the “aptazyme ON/OFF ratio” value falls from 1.14 to 1.07.

First: U7A G9C U10C C12U
Second: U7A G9C U10C C12A
The “aptazyme ON/OFF ratio” value of the first is higher: 1.17 for the first, 1.04 for the second.

Going from U7A G9U U10A U11G C12G C13A to U7A G9U U10A U11G C12G C13G, the “aptazyme ON/OFF ratio” value rises from 1.16 to 1.2.

Going from U7A G9U U10A U11G C12G C13U to U7A G9C U10G U11A C12A C13G, the “aptazyme ON/OFF ratio” value falls from 1.18 to 1.08.

U7A G9C U10G U11A C12A C13A and U7A G9C U10G U11A C12A C13U are the same in “aptazyme ON/OFF ratio” value: 1.07 for the first, 1.07 for the second.

Going from U7A G9C U10G C12G to U7A G9C U10G C12A, the “aptazyme ON/OFF ratio” value falls from 1.11 to 1.09.

First: U7A G9C U10G C12U
Second: U7A G9C U10G U11A C12G C13G
The “aptazyme ON/OFF ratio” value of the first is lower: 1.2 for the first, 1.21 for the second.

Going from U7A G9C U10G U11A C12G C13A to U7A G9C U10G U11A C12G C13U, the “aptazyme ON/OFF ratio” value falls from 1.07 to 1.06.

Going from U7A G9U U10A U11C C12U C13A to U7A G9U U10A U11C C12U C13G, the “aptazyme ON/OFF ratio” value falls from 1.23 to 1.12.

Compared with U7A G9U U10A U11C C12U C13U, U7A G9U U10A C12U C13G is lower in “aptazyme ON/OFF ratio” value: 1.18 for the first, 1.13 for the second.

First: U7A G9U U10A C12U C13U
Second: U7A G9U U10A C12U C13A
The “aptazyme ON/OFF ratio” value of the first is lower: 1.17 for the first, 1.29 for the second.

Going from U7A G9C U11G C12A to U7A G9C U11G C12G, the “aptazyme ON/OFF ratio” value rises from 1.19 to 1.36.

Going from U7A G9C U11G C12U to U7A G9C U11G C13G, the “aptazyme ON/OFF ratio” value falls from 1.57 to 1.07.

Going from U7A G9C U11G C13U to U7A G9C U11G C13A, the “aptazyme ON/OFF ratio” value falls from 1.25 to 1.13.

Reference: the RNAGym collection of RNA variant scans (doi:10.1021/acssynbio.7b00057)
